Assay results: the RNAGym collection of RNA variant scans (doi:10.1073/pnas.2313332121)

B1: TPR t1 (parent)
chain: GACCAAUCUGCCCUCAGAGCUCGAGAACAUCUUCGGAUGCAGAGGAGGCAGGCUUCGGUGGCGCGAUAGCGCCAACGUCCUCAACCUCCAAUGCAUCCCACCACAUGAUGAUGCCUGAAGAGCCUUGGUUUUUUG

Variants of: B1
Experiment: polymerase ribozyme fitness, log enrichment relative to wild type (log ratio); higher = more active; in vitro selection for triplet polymerase activity
Summary of the method: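 Mutant libraries for each subunit of a heterodimeric triplet polymerase ribozyme were made by PCR and then transcribed. Each library underwent one round of in vitro selection in triplicate: annealing with a biotinylated primer, the partner subunit and triplets, frozen incubation at −7 °C, gel excision of extended constructs, streptavidin-bead capture and RT-PCR. Input and output libraries were Illumina-sequenced, and only genotypes with ≥10 input reads and ≥1 read per output were kept. Fitness is the logarithm, base 2, of genotype enrichment over wild-type enrichment, computed from inverse-variance-weighted replicate averages.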
For C8U C20A, the “polymerase ribozyme fitness (log ratio)” value was -1.98.
With C15U U133G the “polymerase ribozyme fitness (log ratio)” value was -2.11.
For C8G C20U U81G, the “polymerase ribozyme fitness (log ratio)” value was -4.46.
With C11G C31A C73U the “polymerase ribozyme fitness (log ratio)” value was -4.73.
For U38A G93U C123U, the “polymerase ribozyme fitness (log ratio)” value was -3.41.
For C12A C72G A91C U96A, the “polymerase ribozyme fitness (log ratio)” value was -2.9.
For G44A C53U U125G, the “polymerase ribozyme fitness (log ratio)” value was -2.16.
For C11U C28A, the “polymerase ribozyme fitness (log ratio)” value was -3.2.
For G45A A83C A84U A100G G122U C123G, the “polymerase ribozyme fitness (log ratio)” value was -5.96.
In the case of C70U C88G U132C, the “polymerase ribozyme fitness (log ratio)” value is reported as -1.25.
In the case of A18C G42C G47A, the “polymerase ribozyme fitness (log ratio)” value is reported as -2.35.
For A41U G52C U87A, the “polymerase ribozyme fitness (log ratio)” value was -1.57.
With U9C A41G C64U C86A the “polymerase ribozyme fitness (log ratio)” value was -0.494.
In the case of A37U G117A, the “polymerase ribozyme fitness (log ratio)” value is reported as -1.4.
In the case of G61U A74C C123G, the “polymerase ribozyme fitness (log ratio)” value is reported as -5.28.
In the case of C73A U87G U129A, the “polymerase ribozyme fitness (log ratio)” value is reported as -1.12.
For C3G C62A C82G, the “polymerase ribozyme fitness (log ratio)” value was -3.81.
In the case of C3U C104A, the “polymerase ribozyme fitness (log ratio)” value is reported as -2.21.
For C13U C22G G44A C56A, the “polymerase ribozyme fitness (log ratio)” value was -5.28.
In the case of A111U U116C, the “polymerase ribozyme fitness (log ratio)” value is reported as -4.01.
In the case of A46G G107A, the “polymerase ribozyme fitness (log ratio)” value is reported as -4.88.
With C12A G45U G58C C98U C101A the “polymerase ribozyme fitness (log ratio)” value was -3.82.
With G48C G57A G63A G93U G127A the “polymerase ribozyme fitness (log ratio)” value was -4.97.
In the case of C15U G36U C64A A121G, the “polymerase ribozyme fitness (log ratio)” value is reported as -5.18.
In the case of G71A C80U, the “polymerase ribozyme fitness (log ratio)” value is reported as -2.57.
With C8A C22G A121U the “polymerase ribozyme fitness (log ratio)” value was -1.6.
With C8U U38C C115A the “polymerase ribozyme fitness (log ratio)” value was 0.431.
In the case of G10U C20A A66G, the “polymerase ribozyme fitness (log ratio)” value is reported as -4.29.
With C12A U116A the “polymerase ribozyme fitness (log ratio)” value was -4.12.
For C73U A84C U92G U112A, the “polymerase ribozyme fitness (log ratio)” value was -2.54.
For C15U A18U C31A G39U U54A C72U C114U C115G, the “polymerase ribozyme fitness (log ratio)” value was -6.25.
In the case of C8G G17C A29U U87G G120A, the “polymerase ribozyme fitness (log ratio)” value is reported as -2.2.
For A5G G10U G42U, the “polymerase ribozyme fitness (log ratio)” value was -1.51.
For U7G A16G A18C G117U, the “polymerase ribozyme fitness (log ratio)” value was -0.355.
In the case of A18C G60A C89G U106A, the “polymerase ribozyme fitness (log ratio)” value is reported as -3.6.
For A5U A18C C124U, the “polymerase ribozyme fitness (log ratio)” value was -0.683.
With A29G the “polymerase ribozyme fitness (log ratio)” value was -0.987.
With C13A U32A C53G the “polymerase ribozyme fitness (log ratio)” value was -6.04.
With G52C A84G U87C A111G the “polymerase ribozyme fitness (log ratio)” value was -2.78.
For C8G U55G G61C, the “polymerase ribozyme fitness (log ratio)” value was -0.439.
For U78C U96A, the “polymerase ribozyme fitness (log ratio)” value was -0.969.
With A43U G48A A100C A111G the “polymerase ribozyme fitness (log ratio)” value was -5.16.
For G17A A37U C115U, the “polymerase ribozyme fitness (log ratio)” value was 0.842.
With C34G U112A U130C the “polymerase ribozyme fitness (log ratio)” value was -6.03.
With C64U the “polymerase ribozyme fitness (log ratio)” value was -0.125.
For C8A C40A A43G G60C, the “polymerase ribozyme fitness (log ratio)” value was -3.55.
With A50C G69U U125A the “polymerase ribozyme fitness (log ratio)” value was 0.0264.
With U9A G110U G117A the “polymerase ribozyme fitness (log ratio)” value was -2.51.
For C102U G122A, the “polymerase ribozyme fitness (log ratio)” value was -2.08.
With G47A C56U C73U C101U A119G G120U G127A the “polymerase ribozyme fitness (log ratio)” value was -1.08.
For G48U C56U C104A, the “polymerase ribozyme fitness (log ratio)” value was -2.25.
In the case of A6C C12A A84G U92C U106G G113C, the “polymerase ribozyme fitness (log ratio)” value is reported as -5.99.
In the case of C20G C73A C115G, the “polymerase ribozyme fitness (log ratio)” value is reported as -5.35.
For C8G C12U G51A U129G, the “polymerase ribozyme fitness (log ratio)” value was -3.08.
For C8G A37U U38C G47A U131A, the “polymerase ribozyme fitness (log ratio)” value was -1.99.
With C79U G117A A119U the “polymerase ribozyme fitness (log ratio)” value was -4.
In the case of A41U A74C, the “polymerase ribozyme fitness (log ratio)” value is reported as -4.24.
With G110U G117U the “polymerase ribozyme fitness (log ratio)” value was -4.2.
For A41U C88G, the “polymerase ribozyme fitness (log ratio)” value was -2.13.
With C12U G45U U132C the “polymerase ribozyme fitness (log ratio)” value was -1.19.
In the case of C31U G71U, the “polymerase ribozyme fitness (log ratio)” value is reported as -4.09.
In the case of C13A C70G G93A C104A G110C, the “polymerase ribozyme fitness (log ratio)” value is reported as -6.34.
For A5U C72U, the “polymerase ribozyme fitness (log ratio)” value was -0.719.
With C72U C94U the “polymerase ribozyme fitness (log ratio)” value was -0.599.
For C3U C12G C13U C62U G120A, the “polymerase ribozyme fitness (log ratio)” value was 2.11.
With C82G C86A C94G the “polymerase ribozyme fitness (log ratio)” value was -3.45.
With U112C G127A the “polymerase ribozyme fitness (log ratio)” value was 0.907.
In the case of A41C C73G, the “polymerase ribozyme fitness (log ratio)” value is reported as -1.33.
In the case of G25U A46U, the “polymerase ribozyme fitness (log ratio)” value is reported as -5.86.
With A27G C62A the “polymerase ribozyme fitness (log ratio)” value was -2.85.
With A16C G52A G60A the “polymerase ribozyme fitness (log ratio)” value was -2.03.
With C8G C15U G39A C62G the “polymerase ribozyme fitness (log ratio)” value was -2.54.
In the case of C79A C99G G120U, the “polymerase ribozyme fitness (log ratio)” value is reported as -7.33.
For A5G G61A C94A, the “polymerase ribozyme fitness (log ratio)” value was -0.707.
With G69C G77A C98U U126C U130C the “polymerase ribozyme fitness (log ratio)” value was -3.72.
For U9G G42U A121C, the “polymerase ribozyme fitness (log ratio)” value was 0.979.
In the case of U7A A29G A83C, the “polymerase ribozyme fitness (log ratio)” value is reported as -0.648.
With A43U A46U G47U G117U the “polymerase ribozyme fitness (log ratio)” value was -7.8.
In the case of C11A C70G C80U C97G C124A, the “polymerase ribozyme fitness (log ratio)” value is reported as -5.66.
With A16U G61C G117C C124G the “polymerase ribozyme fitness (log ratio)” value was -4.49.
In the case of C53G C72G C123U, the “polymerase ribozyme fitness (log ratio)” value is reported as 0.978.
With A6G C12U U30C A108G the “polymerase ribozyme fitness (log ratio)” value was 0.259.
With G44A A90U the “polymerase ribozyme fitness (log ratio)” value was -1.45.
